Residue numbers refer to the chain shown, from its start.
B1: single-arm ActRIIB-Fc:Fc heterodimeric protein complex (Fc fusion)
chain 1: GRGEAETRECIYYNANWELERTNQSGLERCEGEQDKRLHCYASWRNSSGTIELVKKGCWLDDFNCYDRQECVATEENPQVYFCCCEGNFCNERFTHLPEAGGPEVTYEPPPTAPTGGGTHTCPPCPAPELLGGPSVFLFPPKPKDTLMISRTPEVTCVVVDVSHEDPEVKFNWYVDGVEVHNAKTKPREEQYNSTYRVVSVLTVLHQDWLNGKEYKCKVSNKALPAPIEKTISKAKGQPREPQVYTLPPSRKEMTKNQVSLTCLVKGFYPSDIAVEWESNGQPENNYKTTPPVLKSDGSFFLYSKLTVDKSRWQQGNVFSCSVMHEALHNHYTQKSLSLSPGK
chain 2: SNTKVDKRVTGGGTHTCPPCPAPELLGGPSVFLFPPKPKDTLMISRTPEVTCVVVDVSHEDPEVKFNWYVDGVEVHNAKTKPREEQYNSTYRVVSVLTVLHQDWLNGKEYKCKVSNKALPAPIEKTISKAKGQPREPQVYTLPPSREEMTKNQVSLTCLVKGFYPSDIAVEWESNGQPENNYDTTPPVLDSDGSFFLYSDLTVDKSRWQQGNVFSCSVMHEALHNHYTQKSLSLSPGK
notes: C-terminal lysine optionally removed; also called single-arm ActRIIB-Fc heterodimeric complex
B2: single-arm ALK3-Fc:Fc heterodimeric protein complex (Fc fusion)
chain 1: GAQNLDSMLHGTGMKSDSDQKKSENGVTLAPEDTLPFLKCYCSGHCPDDAINNTCITNGHCFAIIEEDDQGETTLASGCMKYEGSDFQCKDSPKAQLRRTIECCRTNLCNQYLQPTLPPVVIGPFFDGSIRTGGGTHTCPPCPAPELLGGPSVFLFPPKPKDTLMISRTPEVTCVVVDVSHEDPEVKFNWYVDGVEVHNAKTKPREEQYNSTYRVVSVLTVLHQDWLNGKEYKCKVSNKALPAPIEKTISKAKGQPREPQVYTLPPSREEMTKNQVSLTCLVKGFYPSDIAVEWESNGQPENNYDTTPPVLDSDGSFFLYSDLTVDKSRWQQGNVFSCSVMHEALHNHYTQKSLSLSPG
chain 2: B1 chain 2 with E147K, D183K, D190K, D200K
notes: also called single-arm ALK3-Fc heterodimer
B3: ALK3-Fc homodimeric complex (Fc fusion, UniProt P36894 24-152, looked up)
chain: QNLDSMLHGTGMKSDSDQKKSENGVTLAPEDTLPFLKCYCSGHCPDDAINNTCITNGHCFAIIEEDDQGETTLASGCMKYEGSDFQCKDSPKAQLRRTIECCRTNLCNQYLQPTLPPVVIGPFFDGSIR
notes: also called homodimeric ALK3-Fc; not shown: linker and Fc portion of the homodimer
B4: GDF11 (ligand, UniProt O95390 299-407, looked up)
chain: NLGLDCDEHSSESRCCRYPLTVDFEAFGWDWIIAPKRYKANYCSGQCEYMFMQKYPHTHLVQQANPRGSAGPCCTPTKMSPINMLYFNDKQQIIYGKIPGMVVDRCGCS
notes: also called BMP11
B5: BMP10 (ligand, UniProt O95393 317-424, looked up)
chain: NAKGNYCKRTPLYIDFKEIGWDSWIIAPPGYEAYECRGVCNYPLAEHLTPTKHAIIQALVHLKNSQKASKACCVPTKLEPISILYLDKGVVTYKFKYEGMAVSECGCR
B6: activin B (ligand, UniProt P09529 293-407, looked up)
chain: GLECDGRTNLCCRQQFFIDFRLIGWNDWIIAPTGYYGNYCEGSCPAYLAGVPGSASSFHTAVVNQYRMRGLNPGTVNSCCIPTKLSTMSMLYFDDEYNIVKRDVPNMIVEECGCA
B7: BMP2 (ligand, UniProt P12643 283-396, looked up)
chain: QAKHKQRKRLKSSCKRHPLYVDFSDVGWNDWIVAPPGYHAFYCHGECPFPLADHLNSTNHAIVQTLVNSVNSKIPKACCVPTELSAISMLYLDENEKVVLKNYQDMVVEGCGCR
B8: BMPRII-Fc homodimeric complex (Fc fusion, UniProt Q13873 27-150, looked up)
chain: SQNQERLCAFKDPYQQDLGIGESRISHENGTILCSKGSTCYGLWEKSKGDINLVKQGCWSHIGDPQECHYEECVVTTTPPSIQNGTYRFCCCSTDLCNVNFTENFPPPDTTPLSPPHSFNRDET
notes: also called homodimeric BMPRII-Fc; not shown: linker and Fc portion of the homodimer
B9: BMP9 (ligand, UniProt Q9UK05 320-429, looked up)
chain: SAGAGSHCQKTSLRVNFEDIGWDSWIIAPKEYEAYECKGGCFFPLADDVTPTKHAIVQTLVHLKFPTKVGKACCVPTKLSPISVLYKDDMGVPTLKYHYEGMSVAECGCR
notes: also called GDF2
B10: GDF6 (ligand, UniProt Q6KF10 336-455, looked up)
chain: TAFASRHGKRHGKKSRLRCSKKPLHVNFKELGWDDWIIAPLEYEAYHCEGVCDFPLRSHLEPTNHAIIQTLMNSMDPGSTPPSCCVPTKLTPISILYIDAGNNVVYKQYEDMVVESCGCR
notes: also called BMP13

Key:
activin A = molecular target: T1, activin A (UniProt P08476 311-426); experiment: SPR (Biacore), legend of FIG. 6
T1 sequence (looked up): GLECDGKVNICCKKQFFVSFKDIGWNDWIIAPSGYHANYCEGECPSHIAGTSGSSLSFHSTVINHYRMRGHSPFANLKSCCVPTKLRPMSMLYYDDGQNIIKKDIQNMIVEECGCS
Protocol: (§1) Ligands were injected and allowed to flow over the captured receptor protein.

activin B = molecular target: B6; experiment: SPR (Biacore), legend of FIG. 6
Protocol: as §1

GDF8 = molecular target: T2, GDF8 (UniProt O14793 267-375); experiment: SPR (Biacore), legend of FIG. 6
T2 construct: also called myostatin
T2 sequence (looked up): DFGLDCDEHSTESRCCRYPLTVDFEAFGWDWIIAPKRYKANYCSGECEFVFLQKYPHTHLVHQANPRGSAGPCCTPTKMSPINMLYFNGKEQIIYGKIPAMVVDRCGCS
Protocol: as §1

GDF11 = molecular target: B4; experiment: SPR (Biacore), legend of FIG. 6
Protocol: as §1

BMP2 = molecular target: B7; experiment: SPR (Biacore), receptor-Fc captured by anti-Fc antibody, ligand injected
BMP4 = molecular target: T3, BMP4 (UniProt P12644 293-408); experiment: as above
T3 sequence (looked up): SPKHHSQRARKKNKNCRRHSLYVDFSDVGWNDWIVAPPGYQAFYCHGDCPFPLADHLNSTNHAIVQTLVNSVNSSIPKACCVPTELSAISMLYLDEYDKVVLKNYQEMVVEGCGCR

BMP5 = molecular target: T4, BMP5 (UniProt P22003 317-454, limits assumed); experiment: as above
T4 sequence (looked up): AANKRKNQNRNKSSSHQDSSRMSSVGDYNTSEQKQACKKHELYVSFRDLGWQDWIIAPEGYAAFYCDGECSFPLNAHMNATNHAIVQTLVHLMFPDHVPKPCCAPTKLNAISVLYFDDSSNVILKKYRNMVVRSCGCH

[1] = molecular target: B3; experiment: as above
[2] = molecular target: T5, ActRIIA-Fc homodimeric complex (UniProt P27037 21-135); experiment: as above
T5 construct: also called homodimeric ActRIIA-Fc; not shown: linker and Fc portion of the homodimer

[3] = molecular target: B8; experiment: as above
Protocol: as §1

BMP6 = molecular target: T6, BMP6 (UniProt P22004 382-513, limits assumed); experiment: as above
T6 sequence (looked up): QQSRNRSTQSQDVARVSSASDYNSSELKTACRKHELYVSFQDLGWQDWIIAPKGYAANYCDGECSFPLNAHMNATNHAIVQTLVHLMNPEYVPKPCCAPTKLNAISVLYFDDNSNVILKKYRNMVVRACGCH
Protocol: as §1

BMP7 = molecular target: T7, BMP7 (UniProt P18075 293-431); experiment: as above
T7 construct: also called OP-1
T7 sequence (looked up): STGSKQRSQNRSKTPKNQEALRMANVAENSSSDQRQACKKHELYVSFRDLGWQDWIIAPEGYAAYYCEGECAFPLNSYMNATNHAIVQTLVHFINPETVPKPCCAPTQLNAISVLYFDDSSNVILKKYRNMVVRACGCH
Protocol: as §1

BMP15 = molecular target: T8, BMP15 (UniProt O95972 268-392); experiment: as above
T8 construct: also called GDF9b
T8 sequence (looked up): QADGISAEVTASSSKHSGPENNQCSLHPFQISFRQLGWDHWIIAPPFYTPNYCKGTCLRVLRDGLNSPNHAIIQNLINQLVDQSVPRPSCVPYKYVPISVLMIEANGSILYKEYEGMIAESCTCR
Protocol: as §1

T5 sequence (P27037 21-135, one chain of several): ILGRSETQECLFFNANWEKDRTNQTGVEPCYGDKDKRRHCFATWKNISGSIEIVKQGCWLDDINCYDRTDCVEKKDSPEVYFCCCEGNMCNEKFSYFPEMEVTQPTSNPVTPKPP

B1: binds (activin A); binds (activin B); binds (GDF8). B1: binds (GDF11).

B2: binds (BMP2); binds (BMP4); binds (BMP5).

B3: binds (BMP5).

B4: no binding [1]; binds [2].

For B5, the binding result [1] was “no binding”, the binding result [2] was “binds” and the Kd [3] was 0.098 nM. For the same binder, the koff [3] was 0.0025 s⁻¹ and the kon [3] was 2.6e+07 M⁻¹ s⁻¹.

B6 gave a Kd [3] of 3.8 nM, a koff [3] of 0.075 s⁻¹ and a kon [3] of 2e+07 M⁻¹ s⁻¹.

B7 showed a Kd [3] greater than 2000 nM.

B8 gave a Kd (BMP6) greater than 8.9 nM, a Kd (BMP7) greater than 38 nM and a Kd (BMP15) of 0.28 nM. It also gave a koff (BMP15) of 0.0028 s⁻¹ and a kon (BMP15) of 9.9e+06 M⁻¹ s⁻¹.

Binder B9 has a Kd [3] of 2.1 nM, a koff [3] of 0.026 s⁻¹ and a kon [3] of 1.2e+07 M⁻¹ s⁻¹.

B10 showed a Kd [3] greater than 88 nM.
